Data taken from publication PMC10115798, “Identification of D-arabinan-degrading enzymes in mycobacteria” (Nature Communications, 2023).

How the values were obtained:
Assay in all cases: SEC-MALS; SEC-LS: size exclusion chromatography coupled light scattering, Agilent MDS system, Agilent BioSEC 5 1000 Å or GE Superdex 200 column; detector offsets calibrated with BSA, concentrations by refractive index
[1] = target: Dg_(GH172b) (HMPREF9455_02471), DUF2961 family GH172 exo-D-arabinofuranosidase from Dysgonomonas gadei (Dysgonomonas gadei) (UniProt F5IZF4)
[2] = target: Dg_(GH172c) (HMPREF9455_02479), DUF2961 family GH172 exo-D-arabinofuranosidase from Dysgonomonas gadei (Dysgonomonas gadei) (UniProt F5IZG2)
[3] = target: Dg_(GH172a) (HMPREF9455_02467), DUF2961 family GH172 exo-D-arabinofuranosidase from Dysgonomonas gadei (Dysgonomonas gadei) (UniProt F5IZF0)
[4] = target: Myc_(GH172) (GII36_05205), DUF2961 homolog from Candidatus Mycosynbacter amalyticus (Candidatus Mycosynbacter amalyticus)
[5] = target: the molecule itself

Molecule: Dg_(GH172b) (HMPREF9455_02471), DUF2961 family GH172 exo-D-arabinofuranosidase from Dysgonomonas gadei (from UniProt F5IZF4 1-643) (enzyme)
- stoichiometry N [1]: 2

Molecule: Dg_(GH172c) (HMPREF9455_02479), DUF2961 family GH172 exo-D-arabinofuranosidase from Dysgonomonas gadei (from UniProt F5IZG2 1-402) (enzyme)
- stoichiometry N [2]: 6

Molecule: Dg_(GH172a) (HMPREF9455_02467), DUF2961 family GH172 exo-D-arabinofuranosidase from Dysgonomonas gadei (from UniProt F5IZF0 1-386) (enzyme)
- stoichiometry N [3]: 12

Molecule: Myc_(GH172) (GII36_05205), DUF2961 homolog from Candidatus Mycosynbacter amalyticus (enzyme)
- stoichiometry N [4]: 3

B1: Noc_(GH172) (O3I_017420), DUF2961 family GH172 enzyme from Nocardia brasiliensis (enzyme, UniProt K0EX55 1-342, looked up)
chain: MTPPRRSELWLLDDTRTRSVSAENPTGAPGGGARATTGTGAHAARLLGPGWKISPSIVLGDGETATLADVSGPGVLRHCWLTTDRAALRELTLRMYWDDAAEPAIDVPLGDFFCNGWDELALVDSEMVVVAPAGGLNSYWPMPFRRRARITLENHCGRSVPVYYQITYGEEDVPGEAGYLHARWSRSAPLGSPAVHTLLDTGPARGRYVGTYLAIRPGAPRWWGEGEMKFYLDGDDEYPTLCGTGTEDYFGGAWNFDMDGKYRTYSTAYLGLPQALPADEIYQAHQRFGMYRWHVHDPICFHRELRVTVQGLGWRDSDTYLPLEDAEIATTVWWYQEVPPSG
notes: O3I_017420, DUF2961 homologue, Nocardia brasiliensis; codon-optimized gene bought from Twist Biosciences; also called GH172Noc; source: E. coli BL21-DE3, purified (IMAC, size exclusion chromatography)
- stoichiometry N [5]: 3
